Measurements: paper PMC3601782

Molecular target: Sox2 (UniProt P48431)
Assay: co-IP Flag-Oct4 variants, endogenous Sox2
Conditions: reference: Flag-Oct4 wild type; sites T235

binding against the reference: weaker
Substance: Oct4 (from UniProt Q01860) Flag-Oct4-T235A
